B1: MlaE (natural protein)
chain: MLLNALASLGHKGIKTLRTFGRAGLMLFNALVGKPEFRKHAPLLVRQLYNVGVLSMLIIVVSGVFIGMVLGLQGYLVLTTYSAETSLGMLVALSLLRELGPVVAALLFAGRAGSALTAEIGLMRATEQLSSMEMMAVDPLRRVISPRFWAGVISLPLLTVIFVAVGIWGGSLVGVSWKGIDSGFFWSAMQNAVDWRMDLVNCLIKSVVFAITVTWISLFNGYDAIPTSAGISRATTRTVVHSSLAVLGLDFVLTALMFGN
B2: MlaF (natural protein)
chain: MEQSVANLVDMRDVSFTRGNRCIFDNISLTVPRGKITAIMGPSGIGKTTLLRLIGGQIAPDHGEILFDGENIPAMSRSRLYTVRKRMSMLFQSGALFTDMNVFDNVAYPLREHTQLPAPLLHSTVMMKLEAVGLRGAAKLMPSELSGGMARRAALARAIALEPDLIMFDEPFVGQDPITMGVLVKLISELNSALGVTCVVVSHDVPEVLSIADHAWILADKKIVAHGSAQALQANPDPRVRQFLDGIADGPVPFRYPAGDYHADLLPGS

What was measured:
[1] = biological target: Strep-tagged MlaDΔTM (E. coli K-12); experiment: SDS-PAGE of the purified protein
[2] = biological target: the molecule itself; experiment: cryo-EM structure

Row | Molecule | stoichiometry N [1] | stoichiometry N [2]
1 | Strep-tagged MlaDΔTM (domain or fragment) | 6 | 
2 | B1 |  | 2
3 | B2 |  | 2

Source: doi:10.1101/2020.06.04.133611 (bioRxiv, 2020)
